Data on eight molecules can be found in US20140056903A1 (Regeneron, published 2014).

The target in assay [1] is T1, human GFRα3 expressed with a C-terminal mFc tag (human).
T1 construct: also called hGFRα3-mFc
T1 chain: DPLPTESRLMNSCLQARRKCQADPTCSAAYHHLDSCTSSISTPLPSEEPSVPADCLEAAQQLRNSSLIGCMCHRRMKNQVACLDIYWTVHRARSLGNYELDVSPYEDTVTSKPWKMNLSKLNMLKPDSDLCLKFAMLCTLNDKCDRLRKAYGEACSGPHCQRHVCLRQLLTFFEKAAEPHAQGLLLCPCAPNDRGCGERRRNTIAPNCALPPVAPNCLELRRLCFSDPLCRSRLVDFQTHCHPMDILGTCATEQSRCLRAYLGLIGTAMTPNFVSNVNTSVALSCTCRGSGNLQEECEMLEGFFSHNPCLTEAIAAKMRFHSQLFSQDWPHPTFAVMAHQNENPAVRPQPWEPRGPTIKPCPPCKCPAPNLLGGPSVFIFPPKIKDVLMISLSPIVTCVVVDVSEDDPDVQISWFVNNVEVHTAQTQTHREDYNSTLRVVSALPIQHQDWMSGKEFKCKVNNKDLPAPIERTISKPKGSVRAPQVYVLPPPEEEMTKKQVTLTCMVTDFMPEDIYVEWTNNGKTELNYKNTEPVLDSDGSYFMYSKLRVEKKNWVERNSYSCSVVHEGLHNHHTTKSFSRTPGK
Kind of assay: SPR, Ab captured, 25C. The method in brief:
(§1)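 Antibodies captured on anti-mouse or anti-human IgG CM5 surfaces, in HBS-EP or PBS-P20 at pH 7.4. mmh-tagged GFRα3 injected at 200–7.4 nM and Fc-tagged at 100–3.7 nM, with association up to 4 min and dissociation up to 20 min. Data fitted 1:1; KD=kd/ka, t1/2=ln2/(60*kd).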
A general note: Surface plasmon resonance follows binding to a sensor surface in real time, without labels.

Assay [2] deals with T2, monkey GFRα3 expressed with a C-terminal myc-myc-hexahistidine tag (monkey (Mf), UniProt O60609 32-374 (human entry), limits assumed).
T2 construct: also called MfGFRα3-mmh; MfGFRα3-mmH
T2 chain: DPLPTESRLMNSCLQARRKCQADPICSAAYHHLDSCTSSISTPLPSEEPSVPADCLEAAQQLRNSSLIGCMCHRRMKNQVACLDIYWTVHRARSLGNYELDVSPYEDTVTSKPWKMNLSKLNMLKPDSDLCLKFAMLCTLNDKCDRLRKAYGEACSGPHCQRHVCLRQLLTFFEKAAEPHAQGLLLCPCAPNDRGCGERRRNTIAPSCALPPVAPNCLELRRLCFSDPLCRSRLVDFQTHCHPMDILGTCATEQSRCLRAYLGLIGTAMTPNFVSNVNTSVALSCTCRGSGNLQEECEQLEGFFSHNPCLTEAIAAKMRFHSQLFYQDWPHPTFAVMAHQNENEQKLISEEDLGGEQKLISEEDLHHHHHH
The assay is described as follows: SPR, Ab captured, 25C. The essentials:
as §1

In assay [3] the target is T3, human GFRα3 expressed with a C-terminal myc-myc-hexahistidine tag (human, UniProt O60609 32-374, biotinylated (sites not given) in ELISA format 2 and in the Octet cross-competition; not in SPR).
T3 construct: also called hGFRα3-mmh; hGFRα3-mmH
Kind of assay: Octet RED384; 25 µg/mL first antibody on streptavidin-captured biotin-hGFRα3-mmH. As to the method: (§2) A cross-competition assay was conducted to assess the ability of select antibodies to compete with one another for binding to human GFRα3 using an Octet RED384 biosensor (Fortebio Inc.). The entire experiment was performed at 25° C. with the flow rate of 1000 rpm in Octet HBST buffer (0.01 M HEPES pH7.4, 0.15M NaCl, 3 mM EDTA, 0.05% v/v Surfactant P20, 0.1 mg/mL BSA). To assess whether 2 antibodies were able to compete with one another for binding to their respective epitopes on biotinylated recombinant human GFRα3 expressed with a C-terminal myc-myc-hexahistidine tag (biotin-hGFRα3-mmH; SEQ ID:370), around ˜1.2 nm of biotin-hGFRα3-mmH was first captured onto streptavidin-coated Octet sensor tips (Fortebio Inc, #18-5019) by submerging the tips for 1 minute into a 10 μg/mL solution of biotin-hGFRα3-mmH. The antigen coated sensor tips were then placed into wells containing 25 μg/mL solution of a first anti-GFRα3 monoclonal antibody for 4 minutes to saturate the biotin-hGFRα3-mmH surface. The sensor tips were then subsequently dipped into wells containing 25 μ/mL solution of a second anti-GFRα3 monoclonal antibody. The sensor tips were washed in Octet HBST buffer in between every step of the experiment. The real-time binding response was monitored during the course of the experiment and the binding response at the end of every step was recorded as shown in FIG. 9. The response of mAb-2 binding to biotin-hGFRα3-mmH pre-complexed with the first antibody was compared and competitive/non-competitive behavior of different anti-GFRα3 monoclonal antibodies was determined.
(In general: In BLI a coated tip is dipped into the sample, and binding shifts an interference pattern.)

Assay [4] concerns the target T3, human GFRα3 expressed with a C-terminal …. Kind of assay: Octet cross-competition; biotin-hGFRα3-mmH pre-saturated with first antibody H4H2294S. Here is the method:
as §2

Assay [5] shares this target. Kind of assay: Octet cross-competition; biotin-hGFRα3-mmH pre-saturated with first antibody H4H2342P. Here is the method: as §2

For orientation: Kd means a measure of binding affinity in units of concentration. A word on the koff: it is the rate constant with which the complex falls apart. The term kon denotes a measure of how fast the partners come together.

B1: H4H2355S (antibody, human IgG4, V domains shown)
VH: EVQLVESGGGLVQPGGSLRLSCAASGFTFSSYAMSWVRQVPGKGLEWVSAISGSGDNTYNAESVKGRFTISRDNSKNMLYLQMNSLRAEDTAVYYCAKTKFSSSLLFDYWGQGTLVTVSS
VL: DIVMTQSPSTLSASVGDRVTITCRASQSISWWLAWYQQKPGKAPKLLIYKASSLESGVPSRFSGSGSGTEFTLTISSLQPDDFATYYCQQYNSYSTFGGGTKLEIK
notes: human IgG4 Fc (H4H)
In assay [1], B1 gave a Kd of at most 0.00164 nM, a koff of at most 1e-06 s⁻¹, a kon of 611000 M⁻¹ s⁻¹ and a t1/2 of 192 h. In assay [2], this molecule gave a Kd of 0.649 nM, a koff of 6.78e-05 s⁻¹, a kon of 105000 M⁻¹ s⁻¹ and a t1/2 of 2.83 h. In addition, the “Amount of Antibody 1 bound (nm)” value in assay [3] came out at 2.73 nm. Besides, the “binding response of second antibody (nm)” value in assay [4] amounted to 0 nm. The “binding response of second antibody (nm)” value in assay [5] turned out to be 0.16 nm.

B2: H4H2291S (antibody, human IgG4, V domains shown)
VH: EVQLVESGGGLVQPGESLRLSCAASGFTFSNYAMSWVRQAPGKGLEWVSVISGSGGSTYYADSVKGRFTMSRDNSKNTLYLQMNSLRAEDTAVYYCAKPPSRAARYFNYGMDVWGQGTTVTVSS
VL: AIRMTQSPSSVSASVGDRVTITCRASQGISSWLAWYQQKPGKAPKLLIYAASSLQSGVPSRFSGSGSGTDFTLTISSLQPEDFATYYCQQANSFPFTFGGGTKVEIK
notes: human IgG4 Fc (H4H)
In assay [1], B2 gave a Kd of 0.00463 nM, a koff of 4.78e-06 s⁻¹, a kon of 1.03e+06 M⁻¹ s⁻¹ and a t1/2 of 40.3 h. In assay [2], this molecule came in with a Kd of 1.85 nM, an off-rate (koff) of 0.000279 s⁻¹, a kon of 151000 M⁻¹ s⁻¹ and a t1/2 of 0.683 h. In assay [3], the “Amount of Antibody 1 bound (nm)” value was 2.89 nm. Also, the “binding response of second antibody (nm)” value in assay [4] was 0.12 nm. The “binding response of second antibody (nm)” value in assay [5] was found to be 0.45 nm.

B3: H4H2295S (antibody, human IgG4, V domains shown)
VH: EVQLVESGGGLVQAGGSLRLSCVASGFTFSSYAMSWVRQAPGKGLEWVSAISGSGGSTYSADSVKGRFTISRDNSKNTLYLQMNSLRAEDTAVYYCTKPSSYSSSNFYYGMDVWGQGTTVTVSS
VL: DIQMTQSPSSVSASVGDRVTITCRASQGISSWLAWYQQKPGKAPKLLIYTASSLQSGVPSRFSGSGSRTDFTLTISSLQPEDFATYYCQQTNSLPLTFGPGTKVEIK
notes: human IgG4 Fc (H4H)
For B3, in assay [1], the Kd was 0.00157 nM, the koff came out at 1.69e-06 s⁻¹, the kon worked out at 1.08e+06 M⁻¹ s⁻¹ and the t1/2 came to 114 h. In addition, in assay [2], the Kd was found to be 5.32 nM, the koff was 0.000973 s⁻¹, the kon turned out to be 183000 M⁻¹ s⁻¹ and the t1/2 is 0.2 h. In assay [3], the “Amount of Antibody 1 bound (nm)” value turned out to be 2.83 nm. In addition, in assay [4], the “binding response of second antibody (nm)” value was determined as 0.04 nm. In assay [5], the “binding response of second antibody (nm)” value was 0.31 nm.

B4: H4H2296S (antibody, human IgG4, V domains shown)
VH: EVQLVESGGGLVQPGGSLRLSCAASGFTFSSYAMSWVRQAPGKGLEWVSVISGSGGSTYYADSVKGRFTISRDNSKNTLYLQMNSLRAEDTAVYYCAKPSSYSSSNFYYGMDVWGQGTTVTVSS
VL: DIVMTQSPSSVSASVGDRVTITCRASQGISSWLAWYQQKPGKAPKLLIYAASSLRSGVPSRFSGSGSGTDFTLTITSLQPEDFATYYCQHTNSFPFTFGPGTKVEIK
notes: human IgG4 Fc (H4H)
In assay [1], B4 gave a Kd of 0.00337 nM, a koff of 4.17e-06 s⁻¹, a kon of 1.24e+06 M⁻¹ s⁻¹ and a t1/2 of 46.2 h. In assay [2], this molecule had a Kd of 3.37 nM, a koff of 0.000651 s⁻¹, a kon of 193000 M⁻¹ s⁻¹ and a t1/2 of 0.3 h. Moreover, the “Amount of Antibody 1 bound (nm)” value in assay [3] was found to be 2.88 nm. The “binding response of second antibody (nm)” value in assay [4] amounted to 0.04 nm. For the same molecule, in assay [5], the “binding response of second antibody (nm)” value was 0.28 nm.

B5: H4H2357S (antibody, human IgG4, V domains shown)
VH: EVQLVESGGGLVQPGGSLRLSCAASTFTFSSYAMTWVRQAPGKGLEWVSSISGSGDSTYYADSVKGRFTISRDNSKNTLFLQMNSLRAEDTAVYYCAKKDGPGRYYVRYGMDVWGQGTTVTVSS
VL: DIQMTQSPSSVSASVGDRVTITCRASQGISSWLAWYQQKPGKAPKLLIYTTSSLQSGVPSRFSGSGSGTDFTLTISSLQPEDFATYYCQQANSFPLTFGGGTKVDIK
notes: human IgG4 Fc (H4H)
In assay [1], B5 had a Kd of 0.0324 nM, a koff of 2.52e-05 s⁻¹, a kon of 779000 M⁻¹ s⁻¹ and a t1/2 of 7.63 h. In assay [2], this molecule displayed a Kd of 2.26 nM, a koff of 0.000315 s⁻¹, a kon of 140000 M⁻¹ s⁻¹ and a t1/2 of 0.617 h. The “Amount of Antibody 1 bound (nm)” value in assay [3] is 2.82 nm. For the same molecule, the “binding response of second antibody (nm)” value in assay [4] was found to be 0.03 nm. The “binding response of second antibody (nm)” value in assay [5] came out at 0.25 nm.

B6: H4H2294S (antibody, human IgG4, V domains shown)
VH: EVQLVESGGGLVQPGGSLRLSCAASGFTFSSYAMSWVRQAPGKGLEWVSVISGSGGSTYYADAVKGRFTISRDNSKHTLYLQMNSLRAEDTAVYYCTKPSSYSSSNFYYGMDVWGQGSTVTVSS
VL: DIQLTQSPSSVSASVGDRVTITCRASQGISSWLAWYQQKPGKAPKLLIYAASSLQSGVPSRFSGSGSGTDFTLTISSLQPEDFATYYCQQTNSFPFPFGPGTKVDIK
notes: human IgG4 Fc (H4H)
In assay [1], B6 yielded a Kd of 0.00463 nM, a koff of 5.63e-06 s⁻¹, a kon of 1.22e+06 M⁻¹ s⁻¹ and a t1/2 of 34.2 h. In assay [2], the Kd was found to be 0.627 nM, the koff is 0.000204 s⁻¹, the kon was determined as 325000 M⁻¹ s⁻¹ and the t1/2 is 0.95 h. The “Amount of Antibody 1 bound (nm)” value in assay [3] turned out to be 2.91 nm. Besides, the “binding response of second antibody (nm)” value in assay [4] was 0.02 nm. Besides, in assay [5], the “binding response of second antibody (nm)” value stood at 0.23 nm.

B7: H4H2243N2 (antibody, human IgG4, V domains shown)
VH: QVQLVQSGAEVKKPGASVKVSCKASGYTFTSYGIIWVRQAPGQGLEWMGWISGYNGNTNYAQNLQGRVTMTTDTSTTTAYMELRSLRSDDTAVYYCARWGIATRPYYYYGMDVWGQGTTVTVSS
VL: DIQMTQSPSSLSASVGDRVTITCRASQDITNYLAWFQQKPGKAPKSLIYAASSLQSGVPSKFSGSGSGTDFTLTISSLQPEDFATYYCQQYNSYPPTFGPGTKVDIK
notes: human IgG4 Fc (H4H)
On to B7, for which the “Amount of Antibody 1 bound (nm)” value in assay [3] stood at 2.42 nm. The “binding response of second antibody (nm)” value in assay [4] turned out to be 0.03 nm; in assay [5], 0.11 nm.

B8: H4H2342P (antibody, human IgG4, V domains shown)
VH: EVQLLESGGGLVQPGGSLRLSCAASGFTFSTYAMSWVRQAPGKGLEWVSAIRGNGVNTYYGDSMKGRFTISRDNSKDTLYLQMNSLRAEDTAVYYCAKNKWELLVFEYWGQGTLVTVSS
VL: DIQMTQSPSSLSASVGDRVTITCRASQDISNYLAWYQQKPGKVPKLLIYAASTLQSGVPFRFSGSGSGTDFTLTISSLQPEDVATYYCQKYNSAPPFGPGTKVDIK
notes: human IgG4 Fc (H4H)
In the case of B8, in assay [1], the Kd is at most 0.00151 nM, the koff was at most 1e-06 s⁻¹, the kon stood at 661000 M⁻¹ s⁻¹ and the t1/2 was 192 h. In assay [2], this molecule showed a Kd of 5.87 nM, a koff of 0.00055 s⁻¹, a kon of 93700 M⁻¹ s⁻¹ and a t1/2 of 0.35 h. Also, the “Amount of Antibody 1 bound (nm)” value in assay [3] is 2.69 nm. For the same molecule, the “binding response of second antibody (nm)” value in assay [4] came out at 0.01 nm. For the same molecule, the “binding response of second antibody (nm)” value in assay [5] turned out to be 0.06 nm.
